Results reported in the supplement of paper PMC10567573.

B1: RAB40B (parent)
chain: YSLTTSSTHKRSSLRKVKLVRPPQ
B2: SLC35F2 (parent)
chain: QYLAERYKVNTPMLQSFINYCLLF

Variants of: B1
Assay: protein stability index of a GFP-peptide fusion (GPS, HEK-293T) (PSI 1-6); higher = more stable
Conditions: c terminus: a fixed tail appended
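Note: lentivirally expressed fusions sorted by FACS into six bins by GFP to DsRed ratio, PSI derived from sequencing read proportions per bin multiplied by bin number.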

In order of rising protein stability index:
1. FSLTTSSTHKRSSLRKVKLVRPPQ [Y1F]  2.81
2. ISLTTSSTHKRSSLRKVKLVRPPQ [Y1I]  3.15
3. CSLTTSSTHKRSSLRKVKLVRPPQ [Y1C]  3.16
4. HSLTTSSTHKRSSLRKVKLVRPPQ [Y1H]  3.46
5. KSLTTSSTHKRSSLRKVKLVRPPQ [Y1K]  3.61
6. GSLTTSSTHKRSSLRKVKLVRPPQ [Y1G]  3.75
7. ASLTTSSTHKRSSLRKVKLVRPPQ [Y1A]  3.99
8. DSLTTSSTHKRSSLRKVKLVRPPQ [Y1D]  4.11
9. ESLTTSSTHKRSSLRKVKLVRPPQ [Y1E]  4.12

Variants of: B2
Assay: as above
Conditions: c terminus: a fixed tail appended

In order of rising protein stability index:
1. QYLAERYKVNTPMLQSFINYCLQF [L23Q]  1.3
2. QYLAERYKVNTPMLQSFINYCALF [L22A]  1.57
3. QYLAERYKVNTPMLQSFINYVLLF [C21V]  1.62
4. QYLAERYKVNTPMLQSFINYCLPF [L23P]  1.63
5. QYLAERYKVNTPMLQSFINYCLKF [L23K]  1.64
6. QYLAERYKVNTPMLQSFINYELLF [C21E]  1.65
7. QYLAERYKVNTPMLQSFINYCLCF [L23C]  1.69
8. QYLAERYKVNTPMLQSFINYCLEF [L23E]  1.78
9. QYLAERYKVNTPMLQSFINYCLLS [F24S]  1.81
10. QYLAERYKVNTPMLQSFINYCLHF [L23H]  1.81
11. QYLAERYKVNTPMLQSFINYCPLF [L22P]  1.82
12. QYLAERYKVNTPMLQSFINYCCLF [L22C]  1.89
13. QYLAERYKVNTPMLQSFINYCLGF [L23G]  1.91
14. QYLAERYKVNTPMLQSFINYCLTF [L23T]  1.94
15. QYLAERYKVNTPMLQSFINYCLLK [F24K]  1.98
16. QYLAERYKVNTPMLQSFINYFLLF [C21F]  1.99
17. QYLAERYKVNTPMLQSFINYCLLC [F24C]  1.99
18. QYLAERYKVNTPMLQSFINYCRLF [L22R]  2.03
19. QYLAERYKVNTPMLQSFINWCLLF [Y20W]  2.03
20. QYLAERYKVNTPMLQSFINYRLLF [C21R]  2.05
21. QYLAERYKVNTPMLQSFINYCDLF [L22D]  2.05
22. QYLAERYKVNTPMLQSFINYILLF [C21I]  2.06
23. QYLAERYKVNTPMLQSFINYCLSF [L23S]  2.08
24. QYLAERYKVNTPMLQSFINMCLLF [Y20M]  2.09
25. QYLAERYKVNTPMLQSFINYTLLF [C21T]  2.11
26. QYLAERYKVNTPMLQSFINYCLLH [F24H]  2.13
27. QYLAERYKVNTPMLQSFINPCLLF [Y20P]  2.17
28. QYLAERYKVNTPMLQSFINYCLLW [F24W]  2.19
29. QYLAERYKVNTPMLQSFINYCSLF [L22S]  2.21
30. QYLAERYKVNTPMLQSFINYCLLD [F24D]  2.21
31. QYLAERYKVNTPMLQSFINYCGLF [L22G]  2.23
32. QYLAERYKVNTPMLQSFINYCLAF [L23A]  2.27
33. QYLAERYKVNTPMLQSFINTCLLF [Y20T]  2.27
34. QYLAERYKVNTPMLQSFINYCLLE [F24E]  2.28
35. QYLAERYKVNTPMLQSFINYHLLF [C21H]  2.29
36. QYLAERYKVNTPMLQSFINYCTLF [L22T]  2.29
37. QYLAERYKVNTPMLQSFINYCNLF [L22N]  2.29
38. QYLAERYKVNTPMLQSFINYQLLF [C21Q]  2.3
39. QYLAERYKVNTPMLQSFINSCLLF [Y20S]  2.3
40. QYLAERYKVNTPMLQSFINYGLLF [C21G]  2.33
41. QYLAERYKVNTPMLQSFINYDLLF [C21D]  2.36
42. QYLAERYKVNTPMLQSFINNCLLF [Y20N]  2.41
43. QYLAERYKVNTPMLQSFINYWLLF [C21W]  2.44
44. QYLAERYKVNTPMLQSFINYCQLF [L22Q]  2.44
45. QYLAERYKVNTPMLQSFINYCLRF [L23R]  2.46
46. QYLAERYKVNTPMLQSFINYCLWF [L23W]  2.47
47. QYLAERYKVNTPMLQSFINRCLLF [Y20R]  2.47
48. QYLAERYKVNTPMLQSFINYCLLG [F24G]  2.48
49. QYLAERYKVNTPMLQSFINKCLLF [Y20K]  2.5
50. QYLAERYKVNTPMLQSFINYMLLF [C21M]  2.52
51. QYLAERYKVNTPMLQSFINYLLLF [C21L]  2.52
52. QYLAERYKVNTPMLQSFINYPLLF [C21P]  2.55
53. QYLAERYKVNTPMLQSFINQCLLF [Y20Q]  2.56
54. QYLAERYKVNTPMLQSFINYCLLN [F24N]  2.58
55. QYLAERYKVNTPMLQSFINYCLNF [L23N]  2.59
56. QYLAERYKVNTPMLQSFINICLLF [Y20I]  2.62
57. QYLAERYKVNTPMLQSFINYSLLF [C21S]  2.67
58. QYLAERYKVNTPMLQSFINYCLLT [F24T]  2.69
59. QYLAERYKVNTPMLQSFINYCLMF [L23M]  2.7
60. QYLAERYKVNTPMLQSFINVCLLF [Y20V]  2.78
61. QYLAERYKVNTPMLQSFINYCKLF [L22K]  2.83
62. QYLAERYKVNTPMLQSFINYCMLF [L22M]  2.85
63. QYLAERYKVNTPMLQSFINYCLYF [L23Y]  2.86
64. QYLAERYKVNTPMLQSFINYCLLR [F24R]  2.88
65. QYLAERYKVNTPMLQSFINLCLLF [Y20L]  2.94
66. QYLAERYKVNTPMLQSFINYCLLL [F24L]  2.95
67. QYLAERYKVNTPMLQSFINYNLLF [C21N]  2.96
68. QYLAERYKVNTPMLQSFINYCLDF [L23D]  2.96
69. QYLAERYKVNTPMLQSFINYCLFF [L23F]  2.96
70. QYLAERYKVNTPMLQSFINYCVLF [L22V]  3.01
71. QYLAERYKVNTPMLQSFINYCILF [L22I]  3.04
72. QYLAERYKVNTPMLQSFINYCLIF [L23I]  3.19
73. QYLAERYKVNTPMLQSFINYCLLI [F24I]  3.21
74. QYLAERYKVNTPMLQSFINYCFLF [L22F]  3.25
75. QYLAERYKVNTPMLQSFINYCLLQ [F24Q]  3.26
76. QYLAERYKVNTPMLQSFINYCHLF [L22H]  3.33
77. QYLAERYKVNTPMLQSFINYCLLY [F24Y]  3.33
78. QYLAERYKVNTPMLQSFINYKLLF [C21K]  3.46
79. QYLAERYKVNTPMLQSFINYCELF [L22E]  3.47
80. QYLAERYKVNTPMLQSFINYCLLV [F24V]  3.47
81. QYLAERYKVNTPMLQSFINYALLF [C21A]  3.53
82. QYLAERYKVNTPMLQSFINYCYLF [L22Y]  3.57
83. QYLAERYKVNTPMLQSFINYCLLM [F24M]  3.6
84. QYLAERYKVNTPMLQSFINYYLLF [C21Y]  3.61
85. QYLAERYKVNTPMLQSFINYCLLP [F24P]  3.94
